Blank lines part the entries; values can stand above or below the molecule they belong to.
What was measured:
[1] = molecular target: human mitochondrial cysteine desulfurase NFS1 (human); assay: amino acid analysis + other: SAXS
[2] = molecular target: [Acp]2:[ISD11]2:[NFS1]2 cysteine desulfurase complex (human | E. coli) (UniProt Q9HD34); assay: SEC + other: amino acid analysis + other: SAXS
human ISD11-His6 (human) = human ISD11-His6 (human) (UniProt Q9HD34); assay: amino acid analysis + other: SAXS
Chain of human ISD11-His6 (human) (Q9HD34 whole entry): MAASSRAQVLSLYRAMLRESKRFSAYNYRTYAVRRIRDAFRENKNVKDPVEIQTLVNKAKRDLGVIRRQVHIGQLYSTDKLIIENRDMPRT

human ISD11-His6 = human ISD11-His6 (human, UniProt Q9HD34 1-91); assay: amino acid analysis + other: SAXS
Chain of human ISD11-His6 (Q9HD34 whole entry): as above

Chain of human mitochondrial cysteine desulfurase NFS1 (human) (Q9Y697 whole entry): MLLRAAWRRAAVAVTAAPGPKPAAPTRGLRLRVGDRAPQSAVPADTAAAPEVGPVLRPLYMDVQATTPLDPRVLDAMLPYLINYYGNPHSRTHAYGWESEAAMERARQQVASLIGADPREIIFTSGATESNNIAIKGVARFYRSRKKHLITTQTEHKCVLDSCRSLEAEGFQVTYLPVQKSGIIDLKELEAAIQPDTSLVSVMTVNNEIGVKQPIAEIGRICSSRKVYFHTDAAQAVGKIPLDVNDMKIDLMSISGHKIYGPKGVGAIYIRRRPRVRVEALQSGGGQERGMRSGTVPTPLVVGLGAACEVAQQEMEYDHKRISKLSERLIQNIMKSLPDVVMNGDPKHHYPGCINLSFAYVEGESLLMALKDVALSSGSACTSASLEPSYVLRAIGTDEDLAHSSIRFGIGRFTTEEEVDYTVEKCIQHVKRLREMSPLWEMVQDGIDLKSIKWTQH
Chain of [Acp]2:[ISD11]2:[NFS1]2 cysteine desulfurase complex (human | E. coli) (Q9HD34 whole entry, looked up, one chain of several): as the sequence (Q9HD34 whole entry) above

- stoichiometry N [1]: 1
Molecule: holo-form of E. coli acyl carrier protein (Acp) (from UniProt P0A6A8 1-78) (natural protein)

- stoichiometry N [2]: 2
Molecule: human frataxin FXN81-210 (mature form of frataxin) (from UniProt Q16595 81-210) (natural protein)

- stoichiometry N (human ISD11-His6 (human)): 1
Molecule: human mitochondrial cysteine desulfurase NFS1 (enzyme)

- stoichiometry N (human ISD11-His6): 1
B1: holo-form of E. coli acyl carrier protein (Acp) (natural protein, UniProt P0A6A8 1-78, looked up)
chain: MSTIEERVKKIIGEQLGVKQEEVTNNASFVEDLGADSLDTVELVMALEEEFDTEIPDEEAEKITTVQAAIDYINGHQA
modifications: 4'-phosphopantetheine conjugated to S37
